Target: PD-L1 (UniProt Q9NZQ7)
Experiment: cell-based or functional assay

PD-L1, sequence (Q9NZQ7 19-290 limits assumed): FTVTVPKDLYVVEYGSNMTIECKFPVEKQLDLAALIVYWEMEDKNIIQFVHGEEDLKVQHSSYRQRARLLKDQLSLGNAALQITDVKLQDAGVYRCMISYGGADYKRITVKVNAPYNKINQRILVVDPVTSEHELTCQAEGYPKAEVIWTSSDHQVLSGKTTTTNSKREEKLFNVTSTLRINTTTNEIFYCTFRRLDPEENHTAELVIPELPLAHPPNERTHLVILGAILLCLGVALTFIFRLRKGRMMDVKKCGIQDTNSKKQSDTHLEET

Substance: anti-PD-L1 antibody (chimera of the variable domain of atezolizumab with human IgG2 domains)
- IL2 concentration (% over isotype control), mixed lymphocyte reaction (% over isotype control): 247
